Among the data in patent US20210388110A1 (published 2021) are Kd values, retold here.

The assay has as its target T1, soluble human GPC3 (human, UniProt P51654 25-563, limits assumed).
T1 construct: soluble human GPC3 as analyte; also called glypican 3
The assay is described as follows: SPR (Biacore), soluble human GPC3.

Positions count from the first letter of the chain named.

T1 sequence (P51654 other isoform, or with tags, fused parts or gaps limits assumed, form in doubt): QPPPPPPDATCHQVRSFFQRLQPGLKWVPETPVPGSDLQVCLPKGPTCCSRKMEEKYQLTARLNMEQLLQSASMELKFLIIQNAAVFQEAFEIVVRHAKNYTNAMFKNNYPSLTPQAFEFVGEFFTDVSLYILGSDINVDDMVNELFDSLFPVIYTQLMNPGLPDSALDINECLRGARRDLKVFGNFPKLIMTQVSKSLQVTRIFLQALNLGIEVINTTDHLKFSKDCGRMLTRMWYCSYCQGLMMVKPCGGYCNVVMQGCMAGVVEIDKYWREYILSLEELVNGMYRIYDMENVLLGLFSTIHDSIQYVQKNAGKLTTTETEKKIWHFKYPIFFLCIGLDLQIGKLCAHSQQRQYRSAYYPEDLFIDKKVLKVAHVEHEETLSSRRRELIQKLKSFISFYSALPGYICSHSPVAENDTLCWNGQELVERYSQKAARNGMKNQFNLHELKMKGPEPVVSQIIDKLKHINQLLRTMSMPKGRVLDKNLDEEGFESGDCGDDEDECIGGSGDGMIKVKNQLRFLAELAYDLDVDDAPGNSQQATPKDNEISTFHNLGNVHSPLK

B1: H0610-G1dh/none-Hi-Kn010G3/L0186-k0 (antibody, human IgG1, kappa)
heavy: not shown
chain: EPKSSDKTHTCPPCPAPELLGGPSVFLFPPKPKDTLMISRTPEVTCVVVDVSHEDPEVKFNWYVDGVEVHNAKTKPREEQYNSTYRVVSVLTVLHQDWLNGKEYKCKVSNKALPAPIEKTISKAKGQPREPQVCTLPPSRDELTKNQVSLWCLVKGFYPSDIAVEWESNGQPENNYKTTPPVLDSDGSFFLYSKLTVDKSRWQQGNVFSCSVMHEALHNRYTQKSLSLSP
light: DIVMTQSPLSLPVTPGEPASISCRSSQSLVHSNRNTYLHWYQQKPGQAPRLLIYKVSNRFSGVPDRFSGSGSGTDFTLKISRVEAEDVGVYYCGQGTQWPYTFGQGTKLEIKRTVAAPSVFIFPPSDEQLKSGTASVVCLLNNFYPREAKVQWKVDNALQSGNSQESVTEQDSKDSTYSLSSTLTLSKADYEKHKVYACEVTHQGLSSPVTKSFNRGEC
notes: single-arm (one Fab)
In turn, B1 displayed a Kd of 1.08 nM.

B2: H0610-G1dh/none-Hi-Kn010G3/L0227-k0 (antibody, human IgG1, kappa)
heavy: not shown
chain: B1 chain
light: B1 light with L29P, L38I, G94L, W99V
notes: single-arm (one Fab)
With B2, binding was characterised by a dissociation constant (Kd) of 0.408 nM.

B3: H0610-G1dh/none-Hi-Kn010G3/L0223-k0 (antibody, human IgG1, kappa)
heavy: not shown
chain: B1 chain
light: B1 light with L29P, L38I, F60L, G94Y, W99V
notes: single-arm (one Fab)
In the case of B3, the Kd is 0.475 nM. The Kd values of the last two molecules are within 1.5-fold of each other.

B4: H0610-G1dh/none-Hi-Kn010G3/L0219-k0 (antibody, human IgG1, kappa)
heavy: not shown
chain: B1 chain
light: B1 light with L38I, S61R, W99V
notes: single-arm (one Fab)
Molecule B4 displayed a dissociation constant Kd of 2.28 nM.

B5: H0610-G1dh/none-Hi-Kn010G3/L0206-k0 (antibody, human IgG1, kappa)
heavy: not shown
chain: B1 chain
light: B1 light with L29P, G94Y, W99V
notes: single-arm (one Fab)
As to B5, the affinity, expressed as Kd, was 0.865 nM.

B6: H0610-G1dh/none-Hi-Kn010G3/L0211-k0 (antibody, human IgG1, kappa)
heavy: not shown
chain: B1 chain
light: B1 light with S28P, L29P, G94Y, W99V
notes: single-arm (one Fab)
B6 had a dissociation constant (Kd) of 0.647 nM.

B7: H0610-G1dh/none-Hi-Kn010G3/L0230-k0 (antibody, human IgG1, kappa)
heavy: not shown
chain: B1 chain
light: B1 light with L29P, L38I, G94Y, G96T, W99V
notes: single-arm (one Fab)
As for B7, binding was put at a Kd of 4 nM.

B8: H0610-G1dh/none-Hi-Kn010G3/L0228-k0 (antibody, human IgG1, kappa)
heavy: not shown
chain: B1 chain
light: B1 light with L29P, L38I, G94V, W99V
notes: single-arm (one Fab)
In turn, B8 returned a Kd of 0.202 nM.

B9: H0610-G1dh/none-Hi-Kn010G3/L0229-k0 (antibody, human IgG1, kappa)
heavy: not shown
chain: B1 chain
light: B1 light with L29P, L38I, G94Y, G96S, W99V
notes: single-arm (one Fab)
B9 gave a Kd of 1.2 nM.

B10: H0610-G1dh/none-Hi-Kn010G3/L0216-k0 (antibody, human IgG1, kappa)
heavy: not shown
chain: B1 chain
light: B1 light with S28P, S61R, W99V
notes: single-arm (one Fab)
In turn, B10 registered a dissociation constant (Kd) of 1.86 nM.

B11: H0610-G1dh/none-Hi-Kn010G3/L0204-k0 (antibody, human IgG1, kappa)
heavy: not shown
chain: B1 chain
light: B1 light with L29P, S61R, W99V
notes: single-arm (one Fab)
In turn, B11 showed a Kd of 0.727 nM. This Kd is about 2.6-fold lower than that of the molecule before.

B12: H0610-G1dh/none-Hi-Kn010G3/L0200-k0 (antibody, human IgG1, kappa)
heavy: not shown
chain: B1 chain
light: B1 light with S25P, L29P, W99V
notes: single-arm (one Fab)
For B12, the Kd stood at 1.04 nM.

B13: H0610-G1dh/none-Hi-Kn010G3/L0213-k0 (antibody, human IgG1, kappa)
heavy: not shown
chain: B1 chain
light: B1 light with L29P, L38I, S61R, W99V
notes: single-arm (one Fab)
The molecule B13 registered a dissociation constant (Kd) of 1.25 nM. The Kd values of the last two molecules are within 1.5-fold of each other.

B14: H0610-G1dh/none-Hi-Kn010G3/L0218-k0 (antibody, human IgG1, kappa)
heavy: not shown
chain: B1 chain
light: B1 light with S61R, G94Y, W99V
notes: single-arm (one Fab)
Take B14: the affinity, expressed as Kd, was 1.99 nM. This Kd lies about 1.6-fold higher than the previous one.

B15: H0610-G1dh/none-Hi-Kn010G3/L0220-k0 (antibody, human IgG1, kappa)
heavy: not shown
chain: B1 chain
light: B1 light with S28P, S61R, G94Y, W99V
notes: single-arm (one Fab)
B15 yielded a Kd of 1.36 nM.

B16: H0610-G1dh/none-Hi-Kn010G3/L0201-k0 (antibody, human IgG1, kappa)
heavy: not shown
chain: B1 chain
light: B1 light with S28P, L29P, W99V
notes: single-arm (one Fab)
In the case of B16, the Kd came to 1.13 nM.

B17: H0610-G1dh/none-Hi-Kn010G3/L0234-k0 (antibody, human IgG1, kappa)
heavy: not shown
chain: B1 chain
light: B1 light with S28E, L29P, S61R, W99V
notes: single-arm (one Fab)
In turn, B17 yielded a Kd of 0.778 nM.

B18: H0610-G1dh/none-Hi-Kn010G3/L0215-k0 (antibody, human IgG1, kappa)
heavy: not shown
chain: B1 chain
light: B1 light with S28P, L29P, L38I, W99V
notes: single-arm (one Fab)
For the molecule B18, the Kd was found to be 1.64 nM.

B19: H0610-G1dh/none-Hi-Kn010G3/L0233-k0 (antibody, human IgG1, kappa)
heavy: not shown
chain: B1 chain
light: B1 light with S28E, W99V
notes: single-arm (one Fab)
Molecule B19 registered a Kd of 3.55 nM. This Kd is about 2.2-fold higher than that of the molecule before.

B20: H0610-G1dh/none-Hi-Kn010G3/L0209-k0 (antibody, human IgG1, kappa)
heavy: not shown
chain: B1 chain
light: B1 light with L29P, L38I, G94Y, W99V
notes: single-arm (one Fab)
Molecule B20 displayed a Kd of 1.12 nM.

B21: H0610-G1dh/none-Hi-Kn010G3/L0222-k0 (antibody, human IgG1, kappa)
heavy: not shown
chain: B1 chain
light: B1 light with L29P, L38I, H39Q, G94Y, W99V
notes: single-arm (one Fab)
B21: binding was characterised by a dissociation constant (Kd) of 0.00014 nM.

B22: H0610-G1dh/none-Hi-Kn010G3/L0202-k0 (antibody, human IgG1, kappa)
heavy: not shown
chain: B1 chain
light: B1 light with L29P, N35W, W99V
notes: single-arm (one Fab)
In the case of B22, the Kd came to 1.22 nM.

B23: H0610-G1dh/none-Hi-Kn010G3/L0231-k0 (antibody, human IgG1, kappa)
heavy: not shown
chain: B1 chain
light: B1 light with L29P, L38I, G94Y
notes: single-arm (one Fab)
On to B23, for which binding was characterised by a dissociation constant (Kd) of 0.589 nM.

B24: H0610-G1dh/none-Hi-Kn010G3/L0224-k0 (antibody, human IgG1, kappa)
heavy: not shown
chain: B1 chain
light: B1 light with L29P, L38I, S61P, G94Y, W99V
notes: single-arm (one Fab)
Molecule B24 displayed a Kd of 0.243 nM.

B25: H0610-G1dh/none-Hi-Kn010G3/L0226-k0 (antibody, human IgG1, kappa)
heavy: not shown
chain: B1 chain
light: B1 light with L29P, L38I, G94I, W99V
notes: single-arm (one Fab)
Consider B25, for which binding was put at a Kd of 0.093 nM. This Kd lies about 2.6-fold lower than the previous one.

B26: H0610-G1dh/none-Hi-Kn010G3/L0217-k0 (antibody, human IgG1, kappa)
heavy: not shown
chain: B1 chain
light: B1 light with S25P, S61R, W99V
notes: single-arm (one Fab)
Molecule B26 yielded a Kd of 1.79 nM.

B27: H0610-G1dh/none-Hi-Kn010G3/L0214-k0 (antibody, human IgG1, kappa)
heavy: not shown
chain: B1 chain
light: B1 light with S28P, L29P, S61R, W99V
notes: single-arm (one Fab)
B27 registered a Kd of 0.657 nM.

B28: H0610-G1dh/none-Hi-Kn010G3/L0212-k0 (antibody, human IgG1, kappa)
heavy: not shown
chain: B1 chain
light: B1 light with S25P, L29P, G94Y, W99V
notes: single-arm (one Fab)
B28 registered a Kd of 0.994 nM.

B29: H0610-G1dh/none-Hi-Kn010G3/L0208-k0 (antibody, human IgG1, kappa)
heavy: not shown
chain: B1 chain
light: B1 light with L29P, S61W, G94Y, W99V
notes: single-arm (one Fab)
For the molecule B29, binding was characterised by a dissociation constant (Kd) of 0.53 nM.

B30: H0610-G1dh/none-Hi-Kn010G3/L0205-k0 (antibody, human IgG1, kappa)
heavy: not shown
chain: B1 chain
light: B1 light with L29P, S61W, W99V
notes: single-arm (one Fab)
Take B30: the Kd stood at 1.01 nM.

B31: H0610-G1dh/none-Hi-Kn010G3/L0203-k0 (antibody, human IgG1, kappa)
heavy: not shown
chain: B1 chain
light: B1 light with L29P, L38I, W99V
notes: single-arm (one Fab)
Take B31: binding was put at a Kd of 2.11 nM.
